In patent publication US20190264194A1 one finds fold fluorescence above background control cells and fold fluorescence above background cellular autofluorescence data, which are given here for one substance.

In experiment [1] the target is OmpA with T7⋅tag epitope inserted into loop 1 (Escherichia coli) (UniProt P0A910). Kind of experiment: flow cytometry of whole cells, biotinylated mAb then streptavidin-phycoerythrin.
For experiment [2], the target named is OmpA with T7⋅tag epitope inserted into loop 4 (Escherichia coli) (UniProt P0A910). The description is as above.

With anti-T7⋅tag monoclonal antibody, the fold fluorescence above background control cells in experiment [1] is 300 fold. This substance registered a fold fluorescence above background cellular autofluorescence in experiment [2] of 2 fold.
